The values that follow come from PMC6454399, “A Parsimonious Mechanism of Sugar Dehydration by Human GDP-Mannose-4,6-dehydratase” (ACS Catalysis, 2019).

Series [1] deals with T1, human GDP-mannose 4,6-dehydratase (hGMD) (Homo sapiens, UniProt O60547, E157Q).
T1 construct: gene GMDS; purified enzyme, wild type and point variants; homodimer in crystals (two to four homodimers per asymmetric unit); construct borders, tags and host only in supplement
T1 sequence (O60547 2-372 E157Q limits assumed): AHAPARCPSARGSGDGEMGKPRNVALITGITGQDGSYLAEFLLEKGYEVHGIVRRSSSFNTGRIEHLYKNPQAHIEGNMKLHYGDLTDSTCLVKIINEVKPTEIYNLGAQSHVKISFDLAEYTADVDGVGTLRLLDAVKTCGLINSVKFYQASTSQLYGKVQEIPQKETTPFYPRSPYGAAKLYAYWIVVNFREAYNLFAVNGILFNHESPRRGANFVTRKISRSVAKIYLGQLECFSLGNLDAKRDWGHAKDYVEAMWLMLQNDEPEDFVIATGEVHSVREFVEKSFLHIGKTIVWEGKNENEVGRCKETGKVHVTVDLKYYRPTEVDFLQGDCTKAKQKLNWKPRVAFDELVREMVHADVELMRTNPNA
The series can be described thus: X-ray crystal structure, […] Å. Conditions: GDP-mannose also bound; NADP+ binding site.

Series [2] addresses T2, human GDP-mannose 4,6-dehydratase (hGMD) (Homo sapiens, UniProt O60547).
T2 construct: gene GMDS; purified enzyme, wild type and point variants; homodimer in crystals (two to four homodimers per asymmetric unit); construct borders, tags and host only in supplement
T2 sequence (O60547 2-372 limits assumed): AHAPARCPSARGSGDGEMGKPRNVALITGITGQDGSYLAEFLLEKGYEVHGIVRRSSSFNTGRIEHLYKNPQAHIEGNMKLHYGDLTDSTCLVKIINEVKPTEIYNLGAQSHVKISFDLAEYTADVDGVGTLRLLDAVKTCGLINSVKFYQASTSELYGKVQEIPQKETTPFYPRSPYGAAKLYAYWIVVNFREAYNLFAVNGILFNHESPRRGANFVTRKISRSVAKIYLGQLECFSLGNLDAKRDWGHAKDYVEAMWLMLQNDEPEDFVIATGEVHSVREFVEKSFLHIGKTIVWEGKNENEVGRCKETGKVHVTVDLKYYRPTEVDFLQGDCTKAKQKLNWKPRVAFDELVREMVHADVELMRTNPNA
The series can be described thus: isothermal titration calorimetry. It counts as binding. For orientation: Isothermal titration calorimetry measures the heat released or taken up as one component is titrated into another.

Substrate in series [3]: Nc1nc2c(ncn2[C@@H]2O[C@H](COP(=O)(O)OP(=O)(O)O[C@H]3O[C@H](CO)[C@@H](O)[C@H](O)[C@@H]3O)[C@@H](O)[C@H]2O)c(=O)[nH]1
The series can be described thus: initial rate measurements. In kind it is biochemical, Homo sapiens. Conditions: 37 °C. The text has this:
initial rate measurements on human GDP-mannose 4,6-dehydratase (hGMD)

Usually Kd stands for the concentration at which binding is half-saturated. As a reminder, the Km is the substrate concentration at which the rate is half of its maximum. Broadly, the kcat is the maximal rate divided by the concentration of active sites.

For the molecule `NC(=O)c1ccc[n+]([C@@H]2O[C@H](COP(=O)(O)OP(=O)(O)OC[C@H]3O[C@@H](n4cnc5c(N)ncnc54)[C@H](OP(=O)(O)O)[C@@H]3O)[C@@H](O)[C@H]2O)c1` [NADP^+], the “X-ray crystal structure, 1.47 Å” value in series [1] is “each monomer has bound GDP-mannose (purple) and NADP^+ (yellow)”.
In turn, `Nc1nc2c(ncn2[C@@H]2O[C@H](COP(=O)(O)OP(=O)(O)O[C@H]3O[C@H](CO)[C@@H](F)[C@H](O)[C@@H]3O)[C@@H](O)[C@H]2O)c(=O)[nH]1` [GDP-4″-deoxy-4″-fluoro-mannose] had an equilibrium dissociation constant (Kd) in series [2] of 1600 nM.

B1: human GDP-mannose 4,6-dehydratase (hGMD) (Homo sapiens) (protein)
chain: AHAPARCPSARGSGDGEMGKPRNVALITGITGQDGSYLAEFLLEKGYEVHGIVRRSSSFNTGRIEHLYKNPQAHIEGNMKLHYGDLTDSTCLVKIINEVKPTEIYNLGAQSHVKISFDLAEYTADVDGVGTLRLLDAVKTCGLINSVKFYQASTSELYGKVQEIPQKETTPFYPRSPYGAAKLYAYWIVVNFREAYNLFAVNGILFNHESPRRGANFVTRKISRSVAKIYLGQLECFSLGNLDAKRDWGHAKDYVEAMWLMLQNDEPEDFVIATGEVHSVREFVEKSFLHIGKTIVWEGKNENEVGRCKETGKVHVTVDLKYYRPTEVDFLQGDCTKAKQKLNWKPRVAFDELVREMVHADVELMRTNPNA
notes: purified enzyme, wild type and point variants; homodimer in crystals (two to four homodimers per asymmetric unit); construct borders, tags and host only in supplement
Consider B1, for which, in series [3], the Michaelis constant (Km) came out at 8 ± 1 µM and the catalytic constant (kcat) worked out at 0.42 ± 0.08 s⁻¹.

B2: human GDP-mannose 4,6-dehydratase (hGMD) (Homo sapiens; S156A) (protein)
chain: AHAPARCPSARGSGDGEMGKPRNVALITGITGQDGSYLAEFLLEKGYEVHGIVRRSSSFNTGRIEHLYKNPQAHIEGNMKLHYGDLTDSTCLVKIINEVKPTEIYNLGAQSHVKISFDLAEYTADVDGVGTLRLLDAVKTCGLINSVKFYQASTAELYGKVQEIPQKETTPFYPRSPYGAAKLYAYWIVVNFREAYNLFAVNGILFNHESPRRGANFVTRKISRSVAKIYLGQLECFSLGNLDAKRDWGHAKDYVEAMWLMLQNDEPEDFVIATGEVHSVREFVEKSFLHIGKTIVWEGKNENEVGRCKETGKVHVTVDLKYYRPTEVDFLQGDCTKAKQKLNWKPRVAFDELVREMVHADVELMRTNPNA
notes: as for B1
In the case of B2, in series [3], the Km was found to be 127 ± 5 µM and the kcat is 0.05 ± 0.01 s⁻¹.
